The series concerns MS2 coat protein. Kind of series: apparent KD of MS2 coat protein; designed switch direction (-1 OFF switch, 1 ON switch): 1; higher = weaker reporter binding. The method in brief:
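Stalled E. coli RNA polymerase transcribed designed RNA switches on Illumina chips, which were then titrated with SNAP-549-labelled MS2 coat protein, doubling from 0.7 or 1.5 nM to 3 µM. Steps lasted from 0.8–1.5 h at the lowest concentration to 10–20 min at the highest. The apparent KD is each design's median over clusters of curve-fitted normalised fluorescence.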

The mark [1] stands for this setting: input ligand: microRNA oligo, concentration not stated.
[2] abbreviates: Eterna round: R95, input ligand: FMN 200 uM.
[3] abbreviates: Eterna round: R95, input ligand: microRNA oligo, concentration not stated.
[4] abbreviates: Eterna round: R95, input ligand: none.

“GGUCGGACUCACAUGAGGAUCACCCAUGUUGCGGAAACGCGAUAGGAUAUCUGUCCGAAAAGGUCAGAGAAGGGUCAACCGACC [Fiskers NG3ss - 64] (Eterna round: R96, puzzle: Same State NG 3)”: the “apparent KD of MS2 coat protein” value runs as follows: (input ligand: FMN 200 uM) 0.447 µM; under setting [1], 0.486 µM; (input ligand: none) 0.567 µM.
For “GGUCGGUCCUACAUGAGGAUCACCCAUGUUCCGGAAACGGCAUAGGAUAUCUGUCCGAAAAGGUCAGAGAAGGGUGAACCGACC [Fiskers NG3ss - 73] (Eterna round: R96, puzzle: Same State NG 3)”, the “apparent KD of MS2 coat protein” value reads like this: (input ligand: FMN 200 uM) 0.153 µM; under setting [1], 0.118 µM; (input ligand: none) 0.189 µM.
Regarding “GGUGCCAAAUAAGCCUACAUGAGGAUCACCCAUGUAUGUAGGUAGGAUAUCGUUUGCAAAGCAAACGAGAAGGGCCUAGGCACC [Mat - Same State NG 3 - JL Mod - D59] (Eterna round: R96, puzzle: Same State NG 3)”, the “apparent KD of MS2 coat protein” value was found to be 0.0261 µM (input ligand: FMN 200 uM), 0.0393 µM under setting [1] and 0.0507 µM (input ligand: none).
In the case of “GGUGCCAAUAAAGCCUACAUGAGGAUCACCCAUGUAUGUAGGCAGGAUAUCGUUUGCAAAGCAAACGAGAAGGGCCUAGGCACC [Mat - Same State NG 3 - JL Mod - D61] (Eterna round: R96, puzzle: Same State NG 3)”, the “apparent KD of MS2 coat protein” value by setting is: (input ligand: FMN 200 uM) 0.0186 µM; under setting [1], 0.0214 µM; (input ligand: none) 0.0315 µM.
On to “GGUGGGUUGCUACCGGCACAUGAGGAUCACCCAUGUUUUGGGAAGGAUAUGGUACCUAUUUGGUACCAGAAGGUCCCGUUGGUG [salish99_SSNG3_r04_708] (Eterna round: R96, puzzle: Same State NG 3)”, for which the “apparent KD of MS2 coat protein” value under setting [1] came to 0.176 µM.
On to “GGUGUACAUGAGGAUCACCCAUGUCGACCGCUCACAGGAUAUUUAAUACAAACUGGUAGCGGAGAAGGGUGAGGAA [Oresbeve] (Eterna round: R96, puzzle: Same State 1)”, for which the “apparent KD of MS2 coat protein” value (input ligand: FMN 200 uM) worked out at 0.523 µM, the “apparent KD of MS2 coat protein” value under setting [1] was found to be 0.16 µM and the “apparent KD of MS2 coat protein” value (input ligand: none) is 0.188 µM.
As for “GGUGUACAUGAGGAUCACCCAUGUCGACCGCUCACAGGAUAUUUAAUACAAACUGGUAGCGGAGAAGGGUGAGGAA [Oresbeve] (puzzle: Same State 1)”, the “apparent KD of MS2 coat protein” value stood at 0.164 µM under setting [2], 0.0957 µM under setting [3] and 0.247 µM under setting [4].
“GUACAGAUCAGAGGAUAUCACGUCGUUUAGACGUGAGAAGGCUGAUCACACAUGAAUAUUAGUACAUGAGGAUCACCCAUGUAC [SSNG1/15-A3] (Eterna round: R96, puzzle: Same State NG 1)”: the “apparent KD of MS2 coat protein” value turned out to be 0.0137 µM (input ligand: FMN 200 uM), 0.0134 µM under setting [1] and 0.0175 µM (input ligand: none).
The like results for “GUACAUAUCAGAGGAUAUCACGUCGAAUAGACGUGAGAAGGCUGAUCACACAUGAAUAUUAAUACAUGAGGAUCACCCAUGUAC [SSNG1/13-A1] (Eterna round: R96, puzzle: Same State NG 1)” were, in that order, 0.0169 µM, 0.0245 µM and 0.0312 µM.
Take “GUAGCAUACCGAGGAUAUUCAUAUAACAUGAGGAUCACCCAUGUAAGGCCACAUUAGUGGCCUUGGGAGAAGGCGGAAUGCUAC [Xeonanis - 20 Mod41] (Eterna round: R96, puzzle: Same State NG 2)”: the “apparent KD of MS2 coat protein” value (input ligand: FMN 200 uM) was determined as 0.0117 µM, the “apparent KD of MS2 coat protein” value under setting [1] stood at 0.0635 µM and the “apparent KD of MS2 coat protein” value (input ligand: none) was found to be 0.0771 µM.
As to “GUAGCAUACCGAGGAUAUUCAUAUAAUAAAUAACAUGAGGAUCACCCAUGUUGGCGAAAGCCUUGGGAGAAGGCGGAAUGCUAC [Xeonanis - 20 Mod56] (Eterna round: R96, puzzle: Same State NG 2)”, the “apparent KD of MS2 coat protein” value reads like this: (input ligand: FMN 200 uM) 0.0135 µM; under setting [1], 0.0458 µM; (input ligand: none) 0.0555 µM.
Take “GUAGCAUACCGAGGAUAUUCAUAUACAUGAGGAUCACCCAUGUUGGCCAGCAUUAGCUGGCCUUGGGAGAAGGCGGAAUGCUAC [Xeonanis - 20 Mod50] (Eterna round: R96, puzzle: Same State NG 2)”: the “apparent KD of MS2 coat protein” value is, setting by setting: (input ligand: FMN 200 uM) 0.0189 µM; under setting [1], 0.0794 µM; (input ligand: none) 0.141 µM.
For “GUAGCAUACCGAGGAUAUUCAUAUUAUAACAUGAGGAUCACCCAUGUUGGCCGAUUACGGCCUUGGGAGAAGGCGGAAUGCUAC [Xeonanis - 20 Mod18] (Eterna round: R96, puzzle: Same State NG 2)”, the “apparent KD of MS2 coat protein” value (input ligand: FMN 200 uM) amounted to 0.0158 µM, the “apparent KD of MS2 coat protein” value under setting [1] was 0.0741 µM and the “apparent KD of MS2 coat protein” value (input ligand: none) worked out at 0.0843 µM.
Turning to “GUAGCAUACCGAGGAUAUUCAUAUUAUACAUGAGGAUCACCCAUGUAAGGCCGAUUACGGCCUUGGGAGAAGGCGGAAUGCUAC [Xeonanis - 20 Mod21] (Eterna round: R96, puzzle: Same State NG 2)”, the “apparent KD of MS2 coat protein” value (input ligand: FMN 200 uM) was determined as 0.0189 µM, the “apparent KD of MS2 coat protein” value under setting [1] is 0.0682 µM and the “apparent KD of MS2 coat protein” value (input ligand: none) was 0.105 µM.
“GUCGGGCAAGCUUUUUUCUCGUAGUGUAAACAUGAGGAUCACCCAUGUGCUCGCCCUGGAUCUUUGGAUCGCAGAAA [Isxevevere] (puzzle: Sensor for hsa-mir-208a)”: the “apparent KD of MS2 coat protein” value runs as follows: under setting [2], 0.0575 µM; under setting [3], 0.0349 µM; under setting [4], 0.0645 µM.
For “GUGGAGGGUUAAGGAUAUUGAAUACAUAUGUUUAACAUGAGGAUCACCCAUGUGGGUUGCGGUAUCGAGAAGGUAAAUUACUGG [salish99_SSNG2_r04_035] (Eterna round: R96, puzzle: Same State NG 2)”, the “apparent KD of MS2 coat protein” value runs as follows: (input ligand: FMN 200 uM) 0.192 µM; under setting [1], 0.151 µM; (input ligand: none) 0.133 µM.
For “GUGGAGGGUUGAGGAUAUUGAAUACAUAUGUUUAACAUGAGGAUCACCCAUGUGGGUUGCGGUUUCGAGAAGGUAGGUUGCUGG [salish99_SSNG2_r04_040] (Eterna round: R96, puzzle: Same State NG 2)” the same measures were 0.103 µM, 0.072 µM and 0.111 µM.
The like results for “GUGGCCCAGGCACAGGAUAUGUUUCUCGUAACAUGAGGAUCACCCAUGUGCCUAUGAGAUUUAAUGCAGAAGGGUGCACGCCACG [Atiinbe] (Eterna round: R96, puzzle: Same State 2)” were, in that order, 0.0182 µM, 0.0613 µM and 0.103 µM.
For the sequence “GUGGCGGGUUGAGGAUAUUGGUUGCCUAUGUUUAACAUGAGGAUCACCCAUGUGGGUUGCGGUUUCGAGAAGGUAGGUUGCUGG [salish99_SSNG2_r04_046] (Eterna round: R96, puzzle: Same State NG 2)”, the “apparent KD of MS2 coat protein” value was 0.228 µM (input ligand: FMN 200 uM), 0.109 µM under setting [1] and 0.188 µM (input ligand: none).
On to “GUGGGACAUGAGGAUCACCCAUGUGGGAGGGAACGAGGAUAUGUGAGGAGCGAGAAGUGAACAGAAGGCGUGGUUG [JR_SS1_Sub023] (puzzle: Same State 1)”, for which the “apparent KD of MS2 coat protein” value under setting [3] is 0.0753 µM.
In the case of “GUGGUCAGACAUGAGGAUCACCCAUGUGGAAUAAAUAACACACAGGAUAUCUAAUAUAAAAUAUAAGAGAAGGGUGGAUUGGUG (Eterna round: R96, puzzle: Same State NG 3)”, the “apparent KD of MS2 coat protein” value under setting [1] worked out at 0.202 µM.
The same measure, in the same setting: the same measure for “GUGGUCAGACAUGAGGAUCACCCAUGUGGAAUAAAUAACACACAGGAUAUGUAAUAUAGGAUAUAACAGAAGGGUGGAUUGGUG (Eterna round: R96, puzzle: Same State NG 3)”: 0.297 µM; for “GUGGUCAGACAUGAGGAUCACCCAUGUGGAAUAAAUAACGUCAAGGAUAUACAAUAUAGGAUAUAGUAGAAGGUGAGAUUGGUG (Eterna round: R96, puzzle: Same State NG 3)”: 0.0948 µM.
In the case of “GUGGUCAGACAUGAGGAUCACCCAUGUGGAAUAAAUAAGGAAAAGGAUAUUCAAUAUAGGAUAUAGAAGAAGGUUUGGUUGGUG (Eterna round: R96, puzzle: Same State NG 3)”, the “apparent KD of MS2 coat protein” value under setting [1] was 0.0735 µM.
Same read-out and setting: the same measure for “GUGGUCAGACAUGAGGAUCACCCAUGUGGAAUAAAUAAGGAGAAGGAUAUCUAAUAUAGGAUAUAAGAGAAGGUUUGGUUGGUG (Eterna round: R96, puzzle: Same State NG 3)”: 0.0632 µM; for “GUGGUCAGACAUGAGGAUCACCCAUGUGGAAUAAAUAAGGAGAAGGAUAUGAAAUAUAGGAUAUAUCAGAAGGUCUGGUUGGUG (Eterna round: R96, puzzle: Same State NG 3)”: 0.0599 µM; for “GUGGUCAGACAUGAGGAUCACCCAUGUGGAAUAAAUAAGGAGAAGGAUAUGCAAUAUAGGAUAUAGCAGAAGGUCUGGUUGGUG (Eterna round: R96, puzzle: Same State NG 3)”: 0.0585 µM.
On to “GUGUAUAGCCUCGAGGAUAUCCUGUAAUGCACAUGAGGAUCACCCAUGUAUGAGCGAGUUUUUUGGGAGAAGGCGAGUUAUCGGU [JR_SS002_Sub1709] (Eterna round: R96, puzzle: Same State 2)”, for which the “apparent KD of MS2 coat protein” value under setting [1] was determined as 0.018 µM.
For the sequence “GUGUGUUGCGGGCAGGAUAUGUACUUGAGUACAUGAGGAUCACCCAUGUGCGCCUGUUUCAGGCGACAGAAGGGCCUAUCGCGAC [JL-ss2-3.26 ViennaUCT mod] (puzzle: Same State 2)”, the “apparent KD of MS2 coat protein” value was 0.121 µM under setting [2], 0.318 µM under setting [3] and 1.34 µM under setting [4].
The like results for “GUUAAACAUGAGGAUCACCCAUGUAAUAAUAUGGGAGGAUAUCAGAAAUUAUGUAUGAAAUGAGAAGGCCUAAUUG [Mat - Same State 1 - Mod of Eli - D79] (puzzle: Same State 1)” were, in that order, 0.0898 µM, 0.244 µM and 0.198 µM.

Source of the values: the supplement of paper PMC9170038.
